In patent publication EP2420255A2 (Ecole Polytechnique Federale De Lausanne (EPFL), dated 2012):
Numbered stars: 1 amine (or outer) side, 2 acyl side, 3 side chain; on linkers, the order of the positions; unused ones are H or OH. Bridge positions count the residues as written; N and C are the ends. TBMB = c1c(C[*:1])cc(C[*:3])cc1C[*:2]

How the values were obtained:
[1] = target: T1, human factor XIa (IHFXI, from human plasma, 160 kDa) (human, UniProt P03951 19-625); test: enzyme inhibition, Ki calculated from IC50 by the Cheng-Prusoff equation, pH 7.4, 25 °C
T1 construct: Printed 'factor Xla'; read as factor XIa; also called human factor Xla

[2] = target: T2, mouse tPA (MTPA, recombinantly produced in insect cells, 70 kDa) (mouse, UniProt P11214 33-559, limits assumed); test: as above
T2 construct: also called murine tPA

[3] = target: T3, human trypsin (HTRYP, from human pancreas, 25 kDa) (human, UniProt P07477 24-247); test: as above
[4] = target: T4, human plasmin (HPLM, from human plasma, 85 kDa) (human, UniProt P00747 97-810, limits assumed); test: as above
[5] = target: T5, human plasma kallikrein (IHPKA, from human plasma, 86 kDa) (human, UniProt P03952 20-638); test: as above
[6] = target: T6, mouse uPA (MUPA-LMW, recombinantly produced in insect cells, 31 kDa) (mouse, UniProt P06869 157-433, limits assumed); test: as above
T6 construct: also called murine uPA

[7] = target: T7, human thrombin (IHT, from human plasma, 37 kDa) (human, UniProt P00734 328-622); test: as above
[8] = target: T8, human tPA (HTPA-TC, recombinant, 70 kDa) (human, UniProt P00750 36-562); test: as above
[9] = target: T9, human urokinase-type plasminogen activator (UPA-LMW, from human urine, 33 kDa) (human, UniProt P00749 156-431); test: as above
[10] = target: T6, mouse uPA (MUPA-LMW, recombinantly …); test: enzyme inhibition, Ki
[11] = target: T9, human urokinase-type plasminogen …; test: enzyme inhibition, Ki
[12] = target: T1, human factor XIa (IHFXI, from human …); test: cell-based or functional assay
[13] = target: T2, mouse tPA (MTPA, recombinantly produced …); test: cell-based or functional assay
[14] = target: T3, human trypsin (HTRYP, from human …); test: cell-based or functional assay
[15] = target: T4, human plasmin (HPLM, from human plasma, …); test: cell-based or functional assay
[16] = target: T5, human plasma kallikrein (IHPKA, from …); test: cell-based or functional assay
[17] = target: T6, mouse uPA (MUPA-LMW, recombinantly …); test: cell-based or functional assay
[18] = target: T7, human thrombin (IHT, from human plasma, …); test: cell-based or functional assay
[19] = target: T8, human tPA (HTPA-TC, recombinant, 70 kDa); test: cell-based or functional assay
[20] = target: T9, human urokinase-type plasminogen …; test: cell-based or functional assay
[21] = target: T9, human urokinase-type plasminogen …; test: enzyme inhibition of human uPA, residual activity

T6 sequence (P06869 157-433 limits assumed): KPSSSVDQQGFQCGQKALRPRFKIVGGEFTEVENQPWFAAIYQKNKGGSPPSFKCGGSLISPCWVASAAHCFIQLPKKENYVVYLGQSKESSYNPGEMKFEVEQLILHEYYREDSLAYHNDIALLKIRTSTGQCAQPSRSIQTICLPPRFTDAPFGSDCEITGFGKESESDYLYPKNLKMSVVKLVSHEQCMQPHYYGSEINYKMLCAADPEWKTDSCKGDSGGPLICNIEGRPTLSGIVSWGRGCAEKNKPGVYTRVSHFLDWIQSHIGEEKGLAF
T5 sequence (P03952 20-638 limits assumed): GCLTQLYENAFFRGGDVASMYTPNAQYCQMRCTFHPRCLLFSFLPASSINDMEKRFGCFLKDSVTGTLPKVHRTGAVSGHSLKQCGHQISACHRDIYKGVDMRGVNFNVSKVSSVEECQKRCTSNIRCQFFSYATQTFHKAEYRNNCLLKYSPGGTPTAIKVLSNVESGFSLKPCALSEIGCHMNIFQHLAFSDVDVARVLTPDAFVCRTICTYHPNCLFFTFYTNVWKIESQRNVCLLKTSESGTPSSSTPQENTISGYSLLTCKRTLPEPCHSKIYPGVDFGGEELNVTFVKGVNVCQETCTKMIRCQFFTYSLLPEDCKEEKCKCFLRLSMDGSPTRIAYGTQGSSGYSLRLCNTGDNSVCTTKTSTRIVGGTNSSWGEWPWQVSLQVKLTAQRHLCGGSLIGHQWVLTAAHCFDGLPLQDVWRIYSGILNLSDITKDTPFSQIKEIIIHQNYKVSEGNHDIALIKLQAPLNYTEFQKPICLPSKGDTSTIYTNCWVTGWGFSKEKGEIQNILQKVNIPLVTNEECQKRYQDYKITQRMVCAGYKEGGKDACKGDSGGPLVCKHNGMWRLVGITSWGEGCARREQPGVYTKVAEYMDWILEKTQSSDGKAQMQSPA
T1 sequence (P03951 19-625 limits assumed): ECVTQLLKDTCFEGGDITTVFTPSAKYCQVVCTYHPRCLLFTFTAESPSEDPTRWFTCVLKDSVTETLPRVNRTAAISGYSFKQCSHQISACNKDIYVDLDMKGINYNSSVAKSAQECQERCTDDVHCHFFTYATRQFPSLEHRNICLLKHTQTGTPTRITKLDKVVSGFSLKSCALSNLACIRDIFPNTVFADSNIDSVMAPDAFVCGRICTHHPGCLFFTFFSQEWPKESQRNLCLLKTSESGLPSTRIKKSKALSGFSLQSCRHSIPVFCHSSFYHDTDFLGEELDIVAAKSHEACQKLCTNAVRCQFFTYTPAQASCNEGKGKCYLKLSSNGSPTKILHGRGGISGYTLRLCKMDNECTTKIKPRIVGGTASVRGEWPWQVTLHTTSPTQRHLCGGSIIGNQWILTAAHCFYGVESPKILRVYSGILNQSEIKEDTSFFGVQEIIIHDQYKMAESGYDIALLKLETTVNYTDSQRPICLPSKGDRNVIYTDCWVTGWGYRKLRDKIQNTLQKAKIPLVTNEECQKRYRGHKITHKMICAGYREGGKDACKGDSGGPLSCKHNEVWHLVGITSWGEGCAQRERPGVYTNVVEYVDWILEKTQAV
T4 sequence (P00747 97-810 limits assumed): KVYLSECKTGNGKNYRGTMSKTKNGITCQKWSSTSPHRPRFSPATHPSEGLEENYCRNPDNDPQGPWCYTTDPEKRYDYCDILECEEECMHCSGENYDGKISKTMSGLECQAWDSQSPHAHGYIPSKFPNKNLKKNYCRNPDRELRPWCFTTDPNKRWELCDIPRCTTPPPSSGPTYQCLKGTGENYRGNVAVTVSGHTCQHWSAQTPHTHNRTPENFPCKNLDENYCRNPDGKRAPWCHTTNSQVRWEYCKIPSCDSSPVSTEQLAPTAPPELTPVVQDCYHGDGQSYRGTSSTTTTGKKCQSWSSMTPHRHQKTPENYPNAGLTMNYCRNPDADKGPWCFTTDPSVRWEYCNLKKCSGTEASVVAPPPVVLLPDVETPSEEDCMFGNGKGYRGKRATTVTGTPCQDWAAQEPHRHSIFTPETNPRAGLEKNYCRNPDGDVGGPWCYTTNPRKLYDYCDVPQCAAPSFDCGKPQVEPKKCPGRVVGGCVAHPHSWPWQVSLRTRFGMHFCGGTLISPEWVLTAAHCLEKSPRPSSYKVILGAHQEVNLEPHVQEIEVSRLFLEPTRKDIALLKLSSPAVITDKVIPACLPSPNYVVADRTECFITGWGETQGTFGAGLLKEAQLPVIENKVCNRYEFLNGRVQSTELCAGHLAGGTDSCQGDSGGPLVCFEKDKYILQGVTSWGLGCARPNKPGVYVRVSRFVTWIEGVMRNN
T2 sequence (P11214 33-559 limits assumed): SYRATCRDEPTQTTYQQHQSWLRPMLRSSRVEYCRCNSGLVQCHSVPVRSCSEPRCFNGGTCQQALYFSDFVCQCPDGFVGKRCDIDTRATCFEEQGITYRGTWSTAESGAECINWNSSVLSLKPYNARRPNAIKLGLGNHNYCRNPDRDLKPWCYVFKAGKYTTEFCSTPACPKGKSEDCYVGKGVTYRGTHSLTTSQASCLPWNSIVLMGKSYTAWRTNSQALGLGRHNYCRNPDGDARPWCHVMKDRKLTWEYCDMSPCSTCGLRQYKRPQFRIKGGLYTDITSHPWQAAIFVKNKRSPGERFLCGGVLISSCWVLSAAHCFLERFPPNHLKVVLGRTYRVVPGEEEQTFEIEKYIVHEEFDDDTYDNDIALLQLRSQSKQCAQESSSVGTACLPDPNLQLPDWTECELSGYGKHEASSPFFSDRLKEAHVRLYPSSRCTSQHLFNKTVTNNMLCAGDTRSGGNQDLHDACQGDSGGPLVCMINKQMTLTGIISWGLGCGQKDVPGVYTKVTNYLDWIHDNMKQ
T8 sequence (P00750 36-562 limits assumed): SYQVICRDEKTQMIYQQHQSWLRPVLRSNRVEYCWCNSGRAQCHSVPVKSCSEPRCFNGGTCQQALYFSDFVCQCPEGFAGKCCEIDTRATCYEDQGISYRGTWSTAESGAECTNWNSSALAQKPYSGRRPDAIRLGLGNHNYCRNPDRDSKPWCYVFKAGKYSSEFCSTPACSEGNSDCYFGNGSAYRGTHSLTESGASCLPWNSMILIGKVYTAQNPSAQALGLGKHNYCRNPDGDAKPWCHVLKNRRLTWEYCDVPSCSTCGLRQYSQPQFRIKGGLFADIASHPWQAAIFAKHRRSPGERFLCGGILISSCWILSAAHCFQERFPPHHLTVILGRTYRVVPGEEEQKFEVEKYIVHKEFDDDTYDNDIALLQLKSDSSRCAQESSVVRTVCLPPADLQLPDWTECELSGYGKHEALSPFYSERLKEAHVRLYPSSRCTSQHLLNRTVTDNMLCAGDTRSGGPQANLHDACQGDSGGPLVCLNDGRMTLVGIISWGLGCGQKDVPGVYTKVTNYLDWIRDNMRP

B1: UK18 bicyclic peptide (chemically synthesized peptide-TBMB conjugate, H-ACSRYEVDCRGRGSACG-NH2 cyclised with tris-(bromomethyl)benzene) (peptide)
peptide: H-ACSRYEVDCRGRGSACG-NH2
modifications: linker 2-9-16 via TBMB
SMILES: CC(C)[C@@H]1NC(=O)[C@H](CCC(=O)O)NC(=O)[C@H](Cc2ccc(O)cc2)NC(=O)[C@H](CCCNC(=N)N)NC(=O)[C@H](CO)NC(=O)[C@@H](NC(=O)[C@H](C)N)CSCc2cc3cc(c2)CSC[C@H](NC(=O)[C@H](CC(=O)O)NC1=O)C(=O)N[C@@H](CCCNC(=N)N)C(=O)NCC(=O)N[C@@H](CCCNC(=N)N)C(=O)NCC(=O)N[C@@H](CO)C(=O)N[C@@H](C)C(=O)N[C@H](C(=O)NCC(N)=O)CSC3
notes: Synthetic bicyclic peptide, 1903 Da after reaction with TBMB; also called clone 18; TBMB-cyclised UK18 peptide
[1]
  Ki: 40.4 µM
[2]
  Ki: 33.7 µM
[3]
  Ki: 34.9 µM
[4]
  Ki: 36.9 µM
[5]
  Ki: 30.5 µM
[6]
  Ki: 42 µM
[7]
  Ki: 23.1 µM
[8]
  Ki: 56.1 µM
[9]
  Ki: 0.03 µM
[10]
  fold of Ki against the Ki of human uPA: ~1400 fold
[11]
  fold better inhibition than of other serine proteases: ~1000 fold
[12]
  IC50 (µM), residual protease activity, substrate Boc-Phe-Ser-Arg-AMC: 63 µM
[13]
  IC50 (µM), residual protease activity, substrate Z-Gly-Gly-Arg-AMC: 52.5 µM
[14]
  IC50 (µM), residual protease activity, substrate Z-Gly-Gly-Arg-AMC: 54.5 µM
[15]
  IC50 (µM), residual protease activity, substrate H-D-Val-Leu-Lys-AMC: 57.5 µM
[16]
  IC50 (µM), residual protease activity, substrate Z-Phe-Arg-AMC: 47.5 µM
[17]
  IC50 (µM), residual protease activity, substrate Z-Gly-Gly-Arg-AMC: 65.5 µM
[18]
  IC50 (µM), residual protease activity, substrate Z-Gly-Gly-Arg-AMC: 36 µM
[19]
  IC50 (µM), residual protease activity, substrate Z-Gly-Gly-Arg-AMC: 87.5 µM
[20]
  IC50 (µM), residual protease activity, substrate Z-Gly-Gly-Arg-AMC: 0.047 µM

B2: linear UK18 peptide with serine instead of cysteine in positions 2, 9 and 16 (H-ASSRYEVDSRGRGSASG-NH2) (peptide)
peptide: H-ASSRYEVDSRGRGSASG-NH2
notes: Not conjugated to TBMB; M = 1740.0 Da; also called UK18ser
[21]
  Ki: 5.8 µM
  fold weaker inhibition than the TBMB-cyclised UK18 peptide: ~200 fold
